# According to PMC5080769, “Bacillus subtilis 5′-nucleotidases with various functions and substrate specificities” (BMC Microbiology, 2016):
# B1: YcsE (Bacillus subtilis subsp. subtilis str. 168) (protein)
# chain: MSVQREDVDIKLIAIDMDGTLLNDEQLISDENRKAIREAEDKGVYVVISTGRTLMTCRELAESLKLSSFLITANGSEIWDSNFNLVERKLLHTDHIQMMWDLRNKHNTNFWASTVNKVWRGEFPENITDHEWLKFGFDIEDDDIRNEVLEELRKNKELEITNSSPTNIEVNALGINKAAALAKVTEKLGFTMENVMAMGDSLNDIAMIKEAGLGVAMGNAQDIVKETADYITDTNIEDGVAKAIRHWVL
# notes: full-length ORF, C-terminal His6 (pET28b, NdeI/XhoI), expressed in E. coli BL21(DE3), TALON purified
# B2: YktC (Bacillus subtilis subsp. subtilis str. 168) (protein)
# chain: MTNWTEIDEIAKKWIREAGARITQSMHESLTIETKSNPNDLVTNIDKETEKFFIDRIQETFPGHRILGEEGQGDKIHSLEGVVWIIDPIDGTMNFVHQQRNFAISIGIFENGEGKIGLIYDVVHDELYHAFSGRGAYMNETKLAPLKETVIEEAILAINATWVTENRRIDQSVLAPLVKRVRGTRSYGSAALELANVAAGRIDAYITMRLAPWDYAAGCVLLNEVGGTYTTIEGEPFTFLENHSVLAGNPSIHKTIFEEYLHARK
# notes: full-length ORF, C-terminal His6 (pET28b, BamHI/HindIII), expressed in E. coli BL21(DE3), TALON purified
# What was measured:
# Assay in all cases: phosphate release, molybdate assay, A820
# YqeG = biological target: T1, YqeG (Bacillus subtilis, UniProt P54452); format: biochemical; settings: 10 mM substrate, 12 h, 50 mM Tris-HCl pH 7.8, 10 mM MgCl2, 250 mM KCl, 1 mM NH4Cl, 37 °C
# T1 construct: gene pgpP; full-length ORF, C-terminal His6 (pET28b, NdeI/HindIII), expressed in E. coli BL21(DE3), TALON purified
# AraL = biological target: T2, AraL (Bacillus subtilis, UniProt P94526); format: biochemical; settings: 10 mM substrate, 12 h, 50 mM Tris-HCl pH 7.8, 10 mM MgCl2, 250 mM KCl, 1 mM NH4Cl, 37 °C
# T2 construct: full-length ORF, C-terminal His6 (pET28b, NdeI/XhoI), expressed in E. coli BL21(DE3), TALON purified
# [1] = substrate: Nc1ccn([C@@H]2O[C@H](COP(=O)(O)O)[C@@H](O)[C@H]2O)c(=O)n1; format: biochemical, Bacillus subtilis; settings: 50 mM Tris-HCl pH 7.8, 10 mM MgCl2, 250 mM KCl, 1 mM NH4Cl, 37 °C
# [2] = substrate: Nc1nc2c(ncn2[C@@H]2O[C@H](COP(=O)(O)O)[C@@H](O)[C@H]2O)c(=O)[nH]1; format: biochemical, Bacillus subtilis; settings: 50 mM Tris-HCl pH 7.8, 10 mM MgCl2, 250 mM KCl, 1 mM NH4Cl, 37 °C
# [3] = substrate: Nc1ncnc2c1ncn2[C@@H]1O[C@H](COP(=O)(O)O)[C@@H](O)[C@H]1O; format: biochemical, Bacillus subtilis; settings: 50 mM Tris-HCl pH 7.8, 10 mM MgCl2, 250 mM KCl, 1 mM NH4Cl, 37 °C
# [4] = substrate: O=c1ccn([C@@H]2O[C@H](COP(=O)(O)O)[C@@H](O)[C@H]2O)c(=O)[nH]1; format: biochemical, Bacillus subtilis; settings: 50 mM Tris-HCl pH 7.8, 10 mM MgCl2, 250 mM KCl, 1 mM NH4Cl, 37 °C
# [5] = substrate: O=P(O)(O)OC(CO)CO; format: biochemical, Bacillus subtilis; settings: 50 mM Tris-HCl pH 7.8, 10 mM MgCl2, 250 mM KCl, 1 mM NH4Cl, 37 °C
# T1 sequence (P54452 whole entry): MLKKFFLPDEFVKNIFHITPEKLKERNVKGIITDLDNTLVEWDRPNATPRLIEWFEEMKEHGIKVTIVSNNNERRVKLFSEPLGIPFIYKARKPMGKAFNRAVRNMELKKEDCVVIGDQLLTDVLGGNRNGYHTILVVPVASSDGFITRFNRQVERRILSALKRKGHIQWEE
# T2 sequence (P94526 whole entry): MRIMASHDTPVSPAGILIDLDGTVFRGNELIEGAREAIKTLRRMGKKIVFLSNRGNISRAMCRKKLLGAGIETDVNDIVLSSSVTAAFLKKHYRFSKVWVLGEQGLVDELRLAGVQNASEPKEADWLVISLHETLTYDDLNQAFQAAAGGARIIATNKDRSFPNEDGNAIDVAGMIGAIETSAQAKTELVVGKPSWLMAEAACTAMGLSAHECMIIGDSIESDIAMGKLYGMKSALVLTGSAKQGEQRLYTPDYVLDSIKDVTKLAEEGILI
Molecule,"phosphate release, molybdate assay, A820 (YqeG)","phosphate release, molybdate assay, A820 (AraL)",Km [1],Km [2],Km [3],Km [4],Km [5]
O=P(O)(O)OC[C@H]1OC(O)[C@H](O)[C@@H](O)[C@@H]1O (some centres unmarked) [G6P],YqeG hydrolyzed GMP and G6P only at the higher concentration,AraL activity was enhanced particularly against G6P at the higher concentration,,,,,
Nc1nc2c(ncn2[C@@H]2O[C@H](COP(=O)(O)O)[C@@H](O)[C@H]2O)c(=O)[nH]1 [GMP],YqeG hydrolyzed GMP and G6P only at the higher concentration,,,,,,
B1,,,4.7 ± 0.23 mM,10.3 ± 0.12 mM,8.6 ± 0.80 mM,8.5 ± 0.69 mM,
B2,,,1.6 ± 0.017 mM,1.9 ± 0.026 mM,,2.4 ± 0.052 mM,0.49 ± 0.035 mM
